Data as given in patent US20210388105A1 (ELPISCIENCE SUZHOU BIOPHARMA, published 2021).
Where “and” joins values, the source holds several entries; their conditions need not be identical. Equal values may be shown once. Read-outs that look alike come from different tables or passages of the source.

T1: human CD39 (full length, on cells) (human, UniProt P49961 1-510)
T1 construct: Recombinant on CHOK1-hCD39 cells or natural on SK-MEL-28, SK-MEL-5 and MOLP-8 cells; the cell line is named under assay; also called hCD39; ENTPD1
T1 sequence: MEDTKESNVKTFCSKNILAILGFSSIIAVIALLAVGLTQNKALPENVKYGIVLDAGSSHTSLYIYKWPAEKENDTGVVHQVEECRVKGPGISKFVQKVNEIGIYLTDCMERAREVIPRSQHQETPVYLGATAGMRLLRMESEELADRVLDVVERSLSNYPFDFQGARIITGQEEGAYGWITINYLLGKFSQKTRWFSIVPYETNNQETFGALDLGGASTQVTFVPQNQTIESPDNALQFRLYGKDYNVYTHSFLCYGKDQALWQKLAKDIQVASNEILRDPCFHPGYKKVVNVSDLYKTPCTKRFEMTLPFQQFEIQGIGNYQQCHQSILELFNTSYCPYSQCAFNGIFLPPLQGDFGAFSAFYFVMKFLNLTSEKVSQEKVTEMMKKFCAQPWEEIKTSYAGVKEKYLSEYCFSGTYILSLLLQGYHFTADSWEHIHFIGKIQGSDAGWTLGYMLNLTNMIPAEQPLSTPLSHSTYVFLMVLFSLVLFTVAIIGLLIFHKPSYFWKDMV

T2: 6×His tagged human CD39 (human, UniProt P49961 38-478)
T2 construct: Analyte in the Biacore assay
T2 sequence: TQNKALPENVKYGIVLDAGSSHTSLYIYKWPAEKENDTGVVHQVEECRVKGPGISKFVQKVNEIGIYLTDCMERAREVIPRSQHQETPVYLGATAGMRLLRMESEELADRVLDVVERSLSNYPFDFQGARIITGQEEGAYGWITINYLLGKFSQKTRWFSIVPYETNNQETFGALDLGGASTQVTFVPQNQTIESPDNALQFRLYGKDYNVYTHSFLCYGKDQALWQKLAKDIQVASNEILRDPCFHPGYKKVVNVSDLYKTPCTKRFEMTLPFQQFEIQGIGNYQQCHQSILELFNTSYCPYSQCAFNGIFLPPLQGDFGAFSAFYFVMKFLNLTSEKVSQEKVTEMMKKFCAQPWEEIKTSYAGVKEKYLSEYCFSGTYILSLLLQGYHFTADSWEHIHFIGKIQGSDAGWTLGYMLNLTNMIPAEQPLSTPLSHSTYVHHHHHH


Columns and labels:
[1] = molecular target: T1, human CD39 (full length, on cells); assay: FACS, MOLP-8 cells
Method: (§1) Similarly, human CD39 expressing cells SK-MEL-5, SK-MEL-28 or MOLP-8, were incubated with a gradient concentration of anti-CD39 antibodies for 30 minutes at 4° C. Cells were washed 3 times using FACS buffer and next incubated with fluorescence labelled secondary antibody (goat-anti-mouse IgG or goat anti-human IgG) for 30 minutes at 4° C. Cells were washed 3 times and then re-suspended in FACS buffer and analyzed by flow cytometry analysis on BD Celesta. Data plotted and analyzed using GraphPad Prism 8.02.
(§2) The binding affinity of the humanized antibodies for c23 was determined by FACS, using similar methods as described in Example 3.2. The c23 humanized antibody clones showing good binding affinity are listed in below Table 19 and Table 20, and also shown in FIGS. 7A, 7B and FIG. 8. EC₅₀ is the concentration of the indicated antibodies to reach 50% of the signal in this assay.

[2] = molecular target: T1, human CD39 (full length, on cells); assay: cell-based or functional assay
[3] = molecular target: T1, human CD39 (full length, on cells); assay: FACS, MOLP-8 cells; remark: listed apart in the source
Method: as §1, §2

6×His tagged human CD39 = molecular target: T2, 6×His tagged human CD39; assay: Biacore SPR, antibody captured on CM5 chip, His-tagged CD39 as analyte
Method: In particular, humanized antibodies hu23.H5L5, hu23.201, hu14.H1L1 and reference antibodies 1394 and T895 were characterized for binding affinity against human CD39 using Biacore (GE). Briefly the antibodies to be tested were captured to CM5 chip (GE) using Human Antibody Capture Kit (GE). The antigen of 6×His tagged human CD39 was serially diluted for multiple doses and injected at 30 μl/min for 180s. Buffer flow was maintained for dissociation of 400s. 3 M MgCl2 was used for chip regeneration. The association and dissociation curves were fit with 1:1 binding model, and the Ka/Kd/KD values for each antibody were calculated.

[4] = molecular target: T1, human CD39 (full length, on cells); assay: FACS, MOLP-8 cells; remark: listed apart in the source
Method: as §1
The binding affinity of the humanized antibodies for c14 was determined by FACS using MOLP-8 cells expressing human CD39, using similar methods as described in Example 3.2.

Binder	EC50 [1]	ATPase inhibition IC50 on SK-MEL-28 cells [2]	EC50 [4]	also measured
hu23.203 (antibody, V domains shown, humanized c23 by yeast display) VH: QVQLVQSGAEVKKPGASVKVSCKASGYTLKDTFLHWVRQAPGQRLEWMGRIDPANGNIKYDPKFQGRVTLTADTSSNTAYMELSSLRSEDTAVYYCANSPYYYGSGYRIFDVWGQGTLVTVSS VL: EIVLTQSPATLTLSPGERATLSCSAFSSVNYMHWYQQKPGQAPRLLIYTTSNLASGIPARFSGSGSGTDYTLTISSLEPEDFAVYYCQQRSTYPFTFGQGTKLEIK	0.429 nM	0.32 nM	–	–
hu23.207 (antibody, V domains shown, humanized c23 by yeast display) VH: EVQLVQSGAEVKKPGASVKVSCKASGYTLKDTFLHWVRQAPGQRLEWMGKIDPANGNIKYDPKFQGRVTLTADTSSNTAYMELSSLRSEDTAVYYCANSPYYYGSGYRIFDVWGQGTLVTVSS VL: EIVLTQSPATLSLSPGERATLSCSAFSSVNYMHWYQQKPGQSPRLLIYTTSNLASGIPARFSGSGSGTDYTLTISSLEPEDFAVYYCQQRSTYPFTFGQGTKLEIK	2.25 nM	–	–	–
hu23.211 (antibody, V domains shown, humanized c23 by yeast display) VH: EVQLVQSGAEVKKPGASVKVSCKASGYTLKDTFLHWVRQAPGQRLEWMGRIDPANGNIKYDPKFQGRVTITADTSSNTAYMELSSLRSEDTAVYYCANSPYYYGSGYRIFDVWGQGTLVTVSS VL: EIVLTQSPATLSLSPGERATLSCSAFSSVNYMHWYQQKPGQAPRLLIYTTSNLASGIPARFSGSGSGTDYTLTISSLEPEDFAVYYCQQRSTYPFTFGQGTKLEIK	1.56 nM	0.386 nM	–	–
c23 (antibody, V domains shown, variable regions of mAb23 on human IgG constant regions; also called chimeric antibody c23) VH: EVQLQQSGAELLRPGASVKLSCTASGYNLKDTFLHWVKQRPEQGLEWIGRIDPANGNIKYDPKFQGKATLTADTSSNTAYLQLISLTSEDTAVYYCANSPYYYGSGYRIFDVWGAGTTVTVSS VL: QIVLTQSPAIMSASPGEKVTITCSAFSSVNYMHWYQQKPGTSPKLLIYTTSNLASGVPTRFSGSGSGTSYSLTISRMEAEDAATYYCQQRSTYPFTFGSGTKLEIQ	1.28 nM	0.158 nM and 0.209 nM	–	EC50 [3]: 1.03 nM and 0.397 nM
hu23.201 (antibody, V domains shown, humanized c23 by yeast display) VH: QVQLVQSGAEVKKPGASVKVSCKASGYTLKDTFLHWVRQAPGQRLEWMGRIDPANGNIKYDPKFQGRVTLTADTSSNTAYMELSSLRSEDTAVYYCANSPYYYGSGYRIFDVWGQGTLVTVSS VL: EIVLTQSPATLSLSPGERATLSCSAFSSVNYMHWYQQKPGQSPRLLIYTTSNLASGIPARFSGSGSGTDYTLTISSLEPEDFAVYYCQQRSTYPFTFGQGTKLEIK	1.29 nM	0.264 nM	–	Kd (6×His tagged human CD39): 24 nM; koff (6×His tagged human CD39): 0.00162 s⁻¹; kon (6×His tagged human CD39): 67500 M⁻¹ s⁻¹
hu14.H3L3 (antibody, V domains shown, humanized c14) VH: EVQLVESGGGLVKPGGSLRLSCAASGFTFSKYWMNWVRQSPGKGLEWVAEIRLKSNKYGTHYAESVKGRFTISRDDSKNTVYLQMNSLKTEDTAVYYCTTQLDLYWFFDVWGQGTTVTVSS VL: EIVLTQSPATLSVSPGERATLSCRASQSISDYLHWYQQKPGQSPRLLIYYASQSISGIPARFSGSGSGTDFTLTISSVEPEDFAVYFCQNGHSLPLTFGGGTKLEIK	–	–	6.09 nM	–
hu14.H3L4 (antibody, V domains shown, humanized c14) VH: EVQLVESGGGLVKPGGSLRLSCAASGFTFSKYWMNWVRQSPGKGLEWVAEIRLKSNKYGTHYAESVKGRFTISRDDSKNTVYLQMNSLKTEDTAVYYCTTQLDLYWFFDVWGQGTTVTVSS VL: EIVMTQSPATLSVSPGERVTLSCRASQSISDYLHWYQQKPGQSPRLLIYYASQSISGIPARFSGSGSGTDFTLTISSVEPEDFAVYFCQNGHSLPLTFGGGTKLEIK	–	–	6.05 nM	–
hu14.H4L4 (antibody, V domains shown, humanized c14) VH: EVQLVESGGGLVKPGGSMRLSCAASGFTFSKYWMNWVRQSPGKGLEWVAEIRLKSNKYGTHYAESVKGRFTISRDDSKNTVYLQMNSLKTEDTAVYYCTTQLDLYWFFDVWGQGTTVTVSS VL: EIVMTQSPATLSVSPGERVTLSCRASQSISDYLHWYQQKPGQSPRLLIYYASQSISGIPARFSGSGSGTDFTLTISSVEPEDFAVYFCQNGHSLPLTFGGGTKLEIK	–	–	5.46 nM	–
c14 (antibody, V domains shown, variable regions of mAb14 on human IgG constant regions; also called chimeric antibody c14) VH: EVKLEESGGGLVQPGGSMKLSCVASGFTFSKYWMNWVRQSPEKGLEWVAEIRLKSNKYGTHYAESVKGRFTISRDDSKNNVYLQMNNLRPEDTGIYYCTTQLDLYWFFDVWGAGTTVTVSS VL: DIVMTQSPAILSVTPGDRVSLSCRASQSISDYLHWYQQKSHESPRLLIKYASQSISGIPSRFSGSGSGSNFTLSINSVEPEDVGVYFCQNGHSLPLTFGAGTKLELR	–	–	17.5 nM	–
